This data set deals with the molecule itself. Briefly: SEC. Background: Size exclusion chromatography separates by hydrodynamic size, large species first.

B1: His6-eVP40 (Ebola virus matrix protein VP40) (natural protein)
chain: MRRVILPTAPPEYMEAIYPVRSNSTIARGGNSNTGFLTPESVNGDTPSNPLRPIADDTIDHASHTPGSVSSAFILEAMVNVISGPKVLMKQIPIWLPLGVADQKTYSFDSTTAAIMLASYTITHFGKATNPLVRVNRLGPGIPDHPLRLLRIGNQAFLQEFVLPPVQLPQYFTFDLTALKLITQPLPAATWTDDTPTGSNGALRPGISFHPKLRPILLPNKSGKKGNSADLTSPEKIQAIMTSLQDFKIVPIDPTKNIMGIEVPETLVHKLTGKKVTSKNGQPIIPVLLPKYIGLDPVAPGDLTMVITQDCDTCHSPASLPAVIEK
With B1, the stoichiometry N (usually a count of units in the complex or per binding partner) came to 2.
